System: FLT3/ITD MV4-11 xenografts
Test: Survival of FLT3/ITD MV4-11 xenografts
Assay type: in vivo
Conditions: MV4-11 s.c. in SCID mice, quizartinib 0.4 mg/kg daily for 21 days by mouth
Procedure: Five million MV4-11 cells were implanted subcutaneously in SCID mice. Tumor growth was monitored throughout the course of the study with bilateral vernier caliper measurements, and mean tumor volumes were calculated using the equation (0.5×[length×width^2]).
Mice with advanced tumor burden were sacrificed upon reaching tumor volumes of greater than 400 mm^3 or showing symptoms of hind limb paralysis, cranial swelling, and/or moribundity.

B1: SGN-CD33A: h2H12EC antibody conjugated to SGD-1910, the pyrrolobenzodiazepine dimer drug-linker (conjugate, chains of the INN, looked up)
VH: QVQLVQSGAEVKKPGASVKVSCKASGYTFTNYDINWVRQAPGQGLEWIGWIYPGDGSTKYNEKFKAKATLTADTSTSTAYMELRSLRSDDTAVYYCASGYEDAMDYWGQGTTVTVSS
VL: DIQMTQSPSSLSASVGDRVTINCKASQDINSYLSWFQQKPGKAPKTLIYRANRLVDGVPSRFSGSGSGQDYTLTISSLQPEDFATYYCLQYDEFPLTFGGGTKVEIK
modifications: PBD dimer payload (talirine)
For B1, the “effect on progression / survival” value (ADC 10 mcg/kg once i.p., FIG. 5) was “induced delay of progression” and the median survival time (SGN-CD33A or SGN-CD123A 10 mcg/kg once i.p., untreated 23 days) was 31 days.
